Source: article PMC10205607, “MAP4K3 inhibits Sirtuin-1 to repress the LKB1–AMPK pathway to promote amino acid-dependent activation of the mTORC1 complex” (Life Science Alliance, 2023)

Target: T1, FLAG-LKB1 (UniProt Q15831 1-433)
T1 construct: Liver kinase B1 (LKB1); also called liver kinase B1; source: HEK293A (WT or MAP4K3 k.o.), transfected, in lysate
T1 sequence (looked up): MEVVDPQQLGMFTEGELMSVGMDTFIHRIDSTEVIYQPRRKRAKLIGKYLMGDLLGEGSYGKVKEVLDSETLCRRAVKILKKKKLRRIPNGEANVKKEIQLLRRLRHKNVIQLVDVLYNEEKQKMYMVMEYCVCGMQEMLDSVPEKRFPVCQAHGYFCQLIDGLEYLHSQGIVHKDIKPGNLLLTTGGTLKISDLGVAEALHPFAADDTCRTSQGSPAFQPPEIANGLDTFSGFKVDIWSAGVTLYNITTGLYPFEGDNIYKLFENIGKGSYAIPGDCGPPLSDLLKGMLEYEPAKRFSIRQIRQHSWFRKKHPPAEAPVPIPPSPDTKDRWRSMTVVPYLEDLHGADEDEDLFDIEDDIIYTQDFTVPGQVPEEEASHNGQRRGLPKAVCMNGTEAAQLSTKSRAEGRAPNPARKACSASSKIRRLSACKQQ
Experiment: co-IP; anti-FLAG IP from lysates of co-transfected HEK293A cells (WT or MAP4K3 k.o.), blot with anti-HA and anti-FLAG; lysis buffer 25 mM HEPES-KOH pH 7.4, 150 mM NaCl, 5 mM EDTA, 1% Triton X-100; 2 h at 4°C
Conditions: partners not purified

B1: SIRT1-HA-T344D (enzyme, UniProt Q96EB6 1-747, looked up)
chain: MADEAALALQPGGSPSAAGADREAASSPAGEPLRKRPRRDGPGLERSPGEPGGAAPEREVPAAARGCPGAAAAALWREAEAEAAAAGGEQEAQATAAAGEGDNGPGLQGPSREPPLADNLYDEDDDDEGEEEEEAAAAAIGYRDNLLFGDEIITNGFHSCESDEEDRASHASSSDWTPRPRIGPYTFVQQHLMIGTDPRTILKDLLPETIPPPELDDMTLWQIVINILSEPPKRKKRKDINTIEDAVKLLQECKKIIVLTGAGVSVSCGIPDFRSRDGIYARLAVDFPDLPDPQAMFDIEYFRKDPRPFFKFAKEIYPGQFQPSLCHKFIALSDKEGKLLRNYDQNIDTLEQVAGIQRIIQCHGSFATASCLICKYKVDCEAVRGDIFNQVVPRCPRCPADEPLAIMKPEIVFFGENLPEQFHRAMKYDKDEVDLLIVIGSSLKVRPVALIPSSIPHEVPQILINREPLPHLHFDVELLGDCDVIINELCHRLGGEYAKLCCNPVKLSEITEKPPRTQKELAYLSELPPTPLHVSEDSSSPERTSPPDSSVIVTLLDQAAKSNDDLDVSESKGCMEEKPQEVQTSRNVESIAEQMENPDLKNVGSSTGEKNERTSVAGTVRKCWPNRVAKEQISRRLDGNQYLFLPPNRYIFHGAEVYSDSEDDVLSSSSCGSNSDSGTCQSPSLEEPMEDESEIEEFYNGLEDEPDVPERAGGAGFGTDGDDQEAINEAISVKQEVTDMNYPSNKS
notes: Derived from the SIRT1-HA construct; also called SIRT1-T344D; SIRT1-T344D-HA; source: MAP4K3 k.o; HEK293A (M4 line), transfected, in lysate
  fold change of the co-precipitate against WT SIRT1 with LKB1 (in MAP4K3 k.o. cells): ~2 fold
